Assay results: the supplement of paper PMC10567573

B1: ISL2 (parent)
chain: HYPFLGAMGDHSKKKPGTAMCVGC

Variants of: B1
Assay: protein stability index of a GFP-peptide fusion (GPS, HEK-293T) (PSI 1-6); higher = more stable
Conditions: c terminus: a fixed tail appended
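Also: lentivirally expressed fusions sorted by FACS into six bins by GFP to DsRed ratio, PSI derived from sequencing read proportions per bin multiplied by bin number.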

Going from HYPFLGAMGDHSKKKPGTRMCVGC [A19R] to HYPFLGAMGDHSKKKPGTVMCVGC [A19V], the protein stability index rises from 2.06 to 2.37.

Compared with HYPFLGAMGDHSKKKPGTKMCVGC [A19K], HYPFLGAMGDHSKKKPGTWMCVGC [A19W] is lower in protein stability index: 2.8 for the first, 1.3 for the second.

Compared with HYPFLGAMGDHSKKKPGTFMCVGC [A19F], HYPFLGAMGDHSKKKPGTYMCVGC [A19Y] is higher in protein stability index: 1.63 for the first, 2.12 for the second.

Compared with HYPFLGAMGDHSKKKPGTPMCVGC [A19P], HYPFLGAMGDHSKKKPGTTMCVGC [A19T] is lower in protein stability index: 2.86 for the first, 2.76 for the second.

Going from HYPFLGAMGDHSKKKPGTEMCVGC [A19E] to HYPFLGAMGDHSKKKPGTSMCVGC [A19S], the protein stability index rises from 3.29 to 3.72.

First: HYPFLGAMGDHSKKKPGTIMCVGC [A19I]
Second: HYPFLGAMGDHSKKKPGTLMCVGC [A19L]
The protein stability index of the first is lower: 2.16 for the first, 2.56 for the second.

Going from HYPFLGAMGDHSKKKPGTMMCVGC [A19M] to HYPFLGAMGDHSKKKPGTDMCVGC [A19D], the protein stability index rises from 2.28 to 3.66.

Compared with HYPFLGAMGDHSKKKPGTNMCVGC [A19N], HYPFLGAMGDHSKKKPGTQMCVGC [A19Q] is higher in protein stability index: 2.44 for the first, 2.91 for the second.

First: HYPFLGAMGDHSKKKPGTGMCVGC [A19G]
Second: HYPFLGAMGDHSKKKPGTHMCVGC [A19H]
The protein stability index of the first is lower: 2.32 for the first, 3.2 for the second.

Compared with HYPFLGAMGDHSKKKPGTCMCVGC [A19C], HYPFLGAMGDHSKKKPGTAMCVGT [C24T] is lower in protein stability index: 4.28 for the first, 2.83 for the second.

First: HYPFLGAMGDHSKKKPGTAMCVGN [C24N]
Second: HYPFLGAMGDHSKKKPGTAMCVGE [C24E]
The protein stability index of the first is lower: 3.64 for the first, 4.5 for the second.

Going from HYPFLGAMGDHSKKKPGTAMCVGS [C24S] to HYPFLGAMGDHSKKKPGTAMCVGH [C24H], the protein stability index falls from 3.46 to 3.42.

First: HYPFLGAMGDHSKKKPGTAMCVGK [C24K]
Second: HYPFLGAMGDHSKKKPGTAMCVGL [C24L]
The protein stability index of the first is higher: 4.12 for the first, 2.48 for the second.

Compared with HYPFLGAMGDHSKKKPGTAMCVGP [C24P], HYPFLGAMGDHSKKKPGTAMCVGM [C24M] is lower in protein stability index: 3.82 for the first, 2.52 for the second.

Compared with HYPFLGAMGDHSKKKPGTAMCVGR [C24R], HYPFLGAMGDHSKKKPGTAMCVGY [C24Y] is lower in protein stability index: 3.52 for the first, 2.75 for the second.

First: HYPFLGAMGDHSKKKPGTAMCVGD [C24D]
Second: HYPFLGAMGDHSKKKPGTAMCVGG [C24G]
The protein stability index of the first is higher: 4.13 for the first, 3.17 for the second.

Going from HYPFLGAMGDHSKKKPGTAMCVGF [C24F] to HYPFLGAMGDHSKKKPGTAMCVGW [C24W], the protein stability index falls from 2.23 to 1.68.

Going from HYPFLGAMGDHSKKKPGTAMCVGQ [C24Q] to HYPFLGAMGDHSKKKPGTAMCVGV [C24V], the protein stability index falls from 4.02 to 3.24.

Compared with HYPFLGAMGDHSKKKPGTAMCVGI [C24I], HYPFLGAMGDHSKKKPGTAMCVGA [C24A] is higher in protein stability index: 2.8 for the first, 3.09 for the second.

Compared with HYPFLGAMGDHSKKKPGTAMPVGC [C21P], HYPFLGAMGDHSKKKPGTAMRVGC [C21R] is lower in protein stability index: 3.59 for the first, 2.79 for the second.

Going from HYPFLGAMGDHSKKKPGTAMIVGC [C21I] to HYPFLGAMGDHSKKKPGTAMSVGC [C21S], the protein stability index rises from 2.69 to 3.37.

Going from HYPFLGAMGDHSKKKPGTAMAVGC [C21A] to HYPFLGAMGDHSKKKPGTAMLVGC [C21L], the protein stability index rises from 2.94 to 3.31.

First: HYPFLGAMGDHSKKKPGTAMHVGC [C21H]
Second: HYPFLGAMGDHSKKKPGTAMYVGC [C21Y]
The protein stability index of the first is higher: 3.04 for the first, 2.97 for the second.

First: HYPFLGAMGDHSKKKPGTAMFVGC [C21F]
Second: HYPFLGAMGDHSKKKPGTAMVVGC [C21V]
The protein stability index of the first is lower: 2.71 for the first, 2.72 for the second.

First: HYPFLGAMGDHSKKKPGTAMNVGC [C21N]
Second: HYPFLGAMGDHSKKKPGTAMMVGC [C21M]
The protein stability index of the first is higher: 3.29 for the first, 2.28 for the second.

Compared with HYPFLGAMGDHSKKKPGTAMWVGC [C21W], HYPFLGAMGDHSKKKPGTAMGVGC [C21G] is higher in protein stability index: 1.91 for the first, 3.12 for the second.

Compared with HYPFLGAMGDHSKKKPGTAMQVGC [C21Q], HYPFLGAMGDHSKKKPGTAMDVGC [C21D] is lower in protein stability index: 3.43 for the first, 2.96 for the second.

First: HYPFLGAMGDHSKKKPGTAMTVGC [C21T]
Second: HYPFLGAMGDHSKKKPGTAMKVGC [C21K]
The protein stability index of the first is lower: 3.71 for the first, 3.81 for the second.

Going from HYPFLGAMGDHSKKKPGTAMEVGC [C21E] to HYPFLGAMGDHSKKKPGTAMCVSC [G23S], the protein stability index falls from 3.39 to 2.76.

First: HYPFLGAMGDHSKKKPGTAMCVMC [G23M]
Second: HYPFLGAMGDHSKKKPGTAMCVQC [G23Q]
The protein stability index of the first is lower: 1.58 for the first, 2.57 for the second.

Compared with HYPFLGAMGDHSKKKPGTAMCVLC [G23L], HYPFLGAMGDHSKKKPGTAMCVEC [G23E] is higher in protein stability index: 1.8 for the first, 3.25 for the second.

First: HYPFLGAMGDHSKKKPGTAMCVFC [G23F]
Second: HYPFLGAMGDHSKKKPGTAMCVIC [G23I]
The protein stability index of the first is higher: 2.44 for the first, 2.16 for the second.

Going from HYPFLGAMGDHSKKKPGTAMCVYC [G23Y] to HYPFLGAMGDHSKKKPGTAMCVWC [G23W], the protein stability index rises from 1.69 to 1.85.

Compared with HYPFLGAMGDHSKKKPGTAMCVTC [G23T], HYPFLGAMGDHSKKKPGTAMCVVC [G23V] is lower in protein stability index: 2.96 for the first, 2.28 for the second.

First: HYPFLGAMGDHSKKKPGTAMCVDC [G23D]
Second: HYPFLGAMGDHSKKKPGTAMCVHC [G23H]
The protein stability index of the first is higher: 3.32 for the first, 2.52 for the second.

Going from HYPFLGAMGDHSKKKPGTAMCVPC [G23P] to HYPFLGAMGDHSKKKPGTAMCVCC [G23C], the protein stability index falls from 3.31 to 3.18.

First: HYPFLGAMGDHSKKKPGTAMCVRC [G23R]
Second: HYPFLGAMGDHSKKKPGTAMCVAC [G23A]
The protein stability index of the first is higher: 2.43 for the first, 2.42 for the second.

Going from HYPFLGAMGDHSKKKPGTAMCVKC [G23K] to HYPFLGAMGDHSKKKPGTAMCVNC [G23N], the protein stability index falls from 3.18 to 2.72.

Going from HYPFLGAMGDHSKKKPRTAMCVGC [G17R] to HYPFLGAMGDHSKKKPETAMCVGC [G17E], the protein stability index rises from 2.23 to 3.44.

Going from HYPFLGAMGDHSKKKPVTAMCVGC [G17V] to HYPFLGAMGDHSKKKPNTAMCVGC [G17N], the protein stability index rises from 2.26 to 3.01.

First: HYPFLGAMGDHSKKKPITAMCVGC [G17I]
Second: HYPFLGAMGDHSKKKPMTAMCVGC [G17M]
The protein stability index of the first is lower: 1.98 for the first, 2.43 for the second.

Going from HYPFLGAMGDHSKKKPKTAMCVGC [G17K] to HYPFLGAMGDHSKKKPTTAMCVGC [G17T], the protein stability index falls from 3.11 to 2.8.

First: HYPFLGAMGDHSKKKPATAMCVGC [G17A]
Second: HYPFLGAMGDHSKKKPWTAMCVGC [G17W]
The protein stability index of the first is higher: 2.86 for the first, 1.63 for the second.

First: HYPFLGAMGDHSKKKPCTAMCVGC [G17C]
Second: HYPFLGAMGDHSKKKPFTAMCVGC [G17F]
The protein stability index of the first is higher: 3.97 for the first, 2.46 for the second.

Compared with HYPFLGAMGDHSKKKPHTAMCVGC [G17H], HYPFLGAMGDHSKKKPYTAMCVGC [G17Y] is lower in protein stability index: 3.18 for the first, 2.58 for the second.

HYPFLGAMGDHSKKKPPTAMCVGC [G17P] and HYPFLGAMGDHSKKKPSTAMCVGC [G17S] are the same in protein stability index: 2.75 for the first, 2.75 for the second.

Going from HYPFLGAMGDHSKKKPDTAMCVGC [G17D] to HYPFLGAMGDHSKKKPQTAMCVGC [G17Q], the protein stability index rises from 3.35 to 3.46.
